Assay results published in the supplement of paper PMC9112550, “Optimization of the antimicrobial peptide Bac7 by deep mutational scanning” (BMC Biology, 2022).

Tested on: Escherichia coli TOP10
Assay: shrunken log2 fold change of peptide-encoding DNA abundance (4.5 h post-induction vs induction); higher = less antimicrobial activity (less host growth inhibition)
Settings: time post-induction: 4.5 h; library: site-saturation at positions 5, 18, 19, 20
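Note: peptides expressed intracellularly from a pBAD plasmid library in pooled LB shake-flask culture, induced with 0.3% L-arabinose, DNA abundance read by NGS, three biological replicates, DESeq2 with apeglm shrinkage.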

Sequence | shrunken log2 fold change
RRIRPRPPRLPRPRPRPDPIPRP | 0.0782
RRIRWRPPRLPRPRPRPYHNPRP | -0.296
RRIRWRPPRLPRPRPRPMGCPRP | 0.117
RRIRIRPPRLPRPRPRPVRDPRP | 0.158
RRIRWRPPRLPRPRPRPEQWPRP | 0.724
RRIRKRPPRLPRPRPRPYMQPRP | -0.0263
RRIRRRPPRLPRPRPRPQDYPRP | -0.268
RRIRWRPPRLPRPRPRPSDMPRP | -0.354
RRIRDRPPRLPRPRPRPTSIPRP | 0.099
RRIRVRPPRLPRPRPRPKCPPRP | 0.0181
RRIRDRPPRLPRPRPRPIWRPRP | 0.235
RRIRIRPPRLPRPRPRPHVPPRP | -0.00519
RRIRDRPPRLPRPRPRPYQFPRP | -0.0464
RRIRSRPPRLPRPRPRPVSIPRP | -0.319
RRIRQRPPRLPRPRPRPWNQPRP | -0.0236
RRIRVRPPRLPRPRPRPSWRPRP | -0.0696
RRIRSRPPRLPRPRPRPMDEPRP | 0.0216
RRIRGRPPRLPRPRPRPTHQPRP | 0.615
RRIRRRPPRLPRPRPRPHLLPRP | -0.0838
RRIRARPPRLPRPRPRPGTEPRP | 0.376
RRIRRRPPRLPRPRPRPLQDPRP | 0.0495
RRIRRRPPRLPRPRPRPYHDPRP | -0.266
RRIRFRPPRLPRPRPRPWAFPRP | -0.161

Sequence | shrunken log2 fold change
RRIRYRPPRLPRPRPRPLVLPRP | -0.206
RRIRFRPPRLPRPRPRPYCLPRP | -0.341
RRIRMRPPRLPRPRPRPAQQPRP | 0.612
RRIRYRPPRLPRPRPRPVAIPRP | -0.702
RRIRNRPPRLPRPRPRPRMWPRP | 0.28
RRIRYRPPRLPRPRPRPLVKPRP | -1.45
RRIRTRPPRLPRPRPRPQQYPRP | -0.0717
RRIRARPPRLPRPRPRPELTPRP | 1.38
RRIRGRPPRLPRPRPRPFKRPRP | 0.301
RRIRQRPPRLPRPRPRPTRAPRP | 0.647
RRIRLRPPRLPRPRPRPVPQPRP | 0.238
RRIRERPPRLPRPRPRPTLRPRP | 0.383
RRIRPRPPRLPRPRPRPNALPRP | 0.0933
RRIRQRPPRLPRPRPRPSHMPRP | 0.109
RRIRERPPRLPRPRPRPCDQPRP | 0.0916
RRIRTRPPRLPRPRPRPYSCPRP | -0.0718
RRIRPRPPRLPRPRPRPRGVPRP | 0.347
RRIRCRPPRLPRPRPRPDATPRP | 1.31
RRIRTRPPRLPRPRPRPGWHPRP | -0.014
RRIRARPPRLPRPRPRPRLHPRP | 0.376
RRIRHRPPRLPRPRPRPMFEPRP | -0.239
RRIRCRPPRLPRPRPRPARNPRP | -0.182
RRIRFRPPRLPRPRPRPSHIPRP | -0.216

Sequence | shrunken log2 fold change
RRIRMRPPRLPRPRPRPINPPRP | -0.0782
RRIRNRPPRLPRPRPRPKMDPRP | 0.0178
RRIRIRPPRLPRPRPRPMSQPRP | -0.119
RRIRFRPPRLPRPRPRPFFMPRP | -0.153
RRIRWRPPRLPRPRPRPLGLPRP | 0.116
RRIRTRPPRLPRPRPRPSVSPRP | -0.386
RRIRVRPPRLPRPRPRPTMFPRP | -0.158
RRIRKRPPRLPRPRPRPPWHPRP | 0.349
RRIRNRPPRLPRPRPRPIPIPRP | -0.0823
RRIRWRPPRLPRPRPRPHWLPRP | 0.243
RRIRIRPPRLPRPRPRPCKRPRP | 0.0279
RRIRPRPPRLPRPRPRPYYWPRP | -0.0723
RRIRMRPPRLPRPRPRPVTIPRP | -0.0206
RRIRIRPPRLPRPRPRPMVRPRP | -0.0105
RRIRWRPPRLPRPRPRPTMSPRP | -0.065
RRIRMRPPRLPRPRPRPPLYPRP | 0.445
RRIRDRPPRLPRPRPRPSPVPRP | 0.0438
RRIRMRPPRLPRPRPRPPRFPRP | 1.23
RRIRQRPPRLPRPRPRPLIAPRP | -0.124
RRIRLRPPRLPRPRPRPKSYPRP | -0.592
RRIRRRPPRLPRPRPRPVPRPRP | 0.518
RRIRFRPPRLPRPRPRPNHWPRP | -0.131
RRIRMRPPRLPRPRPRPWFTPRP | -0.263

Sequence | shrunken log2 fold change
RRIRCRPPRLPRPRPRPDEDPRP | -0.0684
RRIRDRPPRLPRPRPRPEYIPRP | -0.0149
RRIRIRPPRLPRPRPRPMLAPRP | 0.0524
RRIRIRPPRLPRPRPRPYYMPRP | -0.983
RRIRKRPPRLPRPRPRPSMYPRP | -0.306
RRIRRRPPRLPRPRPRPPVIPRP | -0.139
RRIRTRPPRLPRPRPRPTWMPRP | -0.0339
RRIRTRPPRLPRPRPRPIDWPRP | 0.042
RRIRTRPPRLPRPRPRPDDHPRP | -0.00476
RRIRNRPPRLPRPRPRPYVHPRP | -0.253
RRIRGRPPRLPRPRPRPAHQPRP | 0.65
RRIRPRPPRLPRPRPRPKEPPRP | 0.133
RRIRARPPRLPRPRPRPHVAPRP | 0.114
RRIRLRPPRLPRPRPRPMFSPRP | -0.267
RRIRHRPPRLPRPRPRPYEHPRP | -1.01
RRIRFRPPRLPRPRPRPRVLPRP | 0.121
RRIRIRPPRLPRPRPRPGFFPRP | -0.00894
RRIRPRPPRLPRPRPRPWNIPRP | -0.00871
RRIRYRPPRLPRPRPRPRMYPRP | -0.627
RRIRMRPPRLPRPRPRPWSSPRP | -0.145
RRIRWRPPRLPRPRPRPSKEPRP | -0.267
RRIRTRPPRLPRPRPRPMVNPRP | 0.0818
